Patent US7256012B2, “Fluorogenic protease substrates based on dye-dimerization” (3M Innovative Properties Company, priority 1997, dated 2007)

Assay: Fluorescence of the intact dual-labeled conjugate versus singly labeled counterpart
Format: physicochemical
Description: SEQ ID NO. 1 Val-Pro-Arg-Gly-Lys was synthesized by GeneMed Biotechnologies (South San Francisco, Calif.) and purified on reverse phase high performance liquid chromatography (HPLC). Its chemical identity was confirmed by Fast Atom Bombardment (FAB) mass spectroscopy and amino acid analysis. The peptide was reacted overnight with tetramethylrhodamine succimidyl ester in 0.1M sodium bicarbonate, pH 8.3. The reaction mixture was purified on reversed phase HPLC (C-18 column, particle size 15 μm, Waters Corp., Milford, Mass.). All chemically reactive dyes were purchased from Molecular Probes, Eugene, Oreg. The dye-peptide conjugate had the chemical structure of SEQ ID NO. 2 TMR-Val-Pro-Arg-Gly-Lys-TMR (designated T-VPRGK-T in FIG. 2) as shown in Formula I, below. A composite gradient of acetonitrile (ACN) in water was used to purify this conjugate. In a typical elution, the acetonitrile content was increased from 15% to 30% during the initial 15 minutes, followed by a 10-minute isocratic elution at 30% ACN, a 5-minute gradient to 50%, then 5-minute isocratic elution at 50% ACN. All solvents contained 0.1% trifluoroacetic acid. The molecular weight of the purified conjugate, determined by FAB mass spectroscopy, was 1379 which was the calculated molecular mass based on the elemental composition of C74H85N13O14.

TMR-Val-Pro-Arg-Gly-Lys-TMR (XPRGX; not fully specified; TMR dye at both ends) [T-VPRGK-T]
fluorescence of dual-labeled conjugate versus singly labeled counterpart: substantially lower fluorescence than its singly labeled counterpart
